B5: anti-KLB monoclonal antibody 2C12 (antibody, human IgG1, V domains shown)
VH: EVQLQQSGPGLVKPSQSLSLTCSVTGYSITSGYYWTWIRQFPGNKLEWMGYIKYDGGNYYNPSLRNRISITRDTSKNHFFLKFYSVTAEDTATYFCARGDYYASPYGAMDSWGQGTSVTVSS
VL: DIVMTQSPSSLSASLGDTITITCHASQDIDVWLSWYQQKPGNVPQLLISKSSILHTGVPSRFSGGGSGTGFTLTISSLQPEDIATYYCQQGLSYPFTFGSGTKLKIK
notes: hybridoma mouse IgG in the first screen; also called clone 2C12; 2C12 (human IgG1)

Columns and labels:
[1] = target: human KLB/FGFR1c receptor complex on cells (human, UniProt Q86Z14 53-1044; P11362 22-822); test: cell-based or functional assay
[2] = target: T1, human KLB expressed on cells (human, UniProt Q86Z14 53-1044); test: flow cytometry, HEK293T cells transiently expressing the construct, antibody at 2 µg/ml, anti-human IgG-Alexa 488
T1 construct: also called hKLB; Klotho-beta

Rat KLB [3] = target: T2, Rat KLB (limits assumed); test: flow cytometry, HEK293T cells transiently expressing the construct, anti-human IgG-Alexa 488
T2 construct: also called rat Klotho-beta
T2 single chain: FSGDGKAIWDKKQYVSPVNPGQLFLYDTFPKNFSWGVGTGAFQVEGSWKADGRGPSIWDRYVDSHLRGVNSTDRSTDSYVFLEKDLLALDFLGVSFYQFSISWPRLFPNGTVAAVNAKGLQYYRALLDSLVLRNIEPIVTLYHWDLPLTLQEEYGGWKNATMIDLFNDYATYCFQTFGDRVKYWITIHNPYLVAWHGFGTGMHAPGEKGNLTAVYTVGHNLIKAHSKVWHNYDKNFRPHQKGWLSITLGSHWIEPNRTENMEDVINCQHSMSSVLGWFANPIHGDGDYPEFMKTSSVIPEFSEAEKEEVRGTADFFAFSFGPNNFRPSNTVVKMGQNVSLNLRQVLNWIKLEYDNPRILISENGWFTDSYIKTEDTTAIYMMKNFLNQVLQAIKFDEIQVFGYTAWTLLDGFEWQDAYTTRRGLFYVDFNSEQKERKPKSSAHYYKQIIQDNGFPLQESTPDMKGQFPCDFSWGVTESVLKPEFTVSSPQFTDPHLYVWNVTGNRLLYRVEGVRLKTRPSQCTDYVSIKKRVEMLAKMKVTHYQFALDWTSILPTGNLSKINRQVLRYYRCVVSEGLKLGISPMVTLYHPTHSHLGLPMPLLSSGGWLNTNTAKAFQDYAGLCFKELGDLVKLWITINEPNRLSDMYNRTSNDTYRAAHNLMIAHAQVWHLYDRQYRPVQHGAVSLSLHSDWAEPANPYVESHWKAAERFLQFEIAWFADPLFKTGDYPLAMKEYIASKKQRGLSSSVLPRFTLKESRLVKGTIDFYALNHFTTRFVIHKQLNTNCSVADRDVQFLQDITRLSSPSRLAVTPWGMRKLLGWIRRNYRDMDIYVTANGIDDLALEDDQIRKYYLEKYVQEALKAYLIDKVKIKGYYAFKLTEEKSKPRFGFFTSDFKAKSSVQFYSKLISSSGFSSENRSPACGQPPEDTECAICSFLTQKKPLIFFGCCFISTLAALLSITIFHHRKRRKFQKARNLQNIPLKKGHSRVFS

[4] = target: T1, human KLB expressed on cells; test: FACS, HEK293T cells expressing human/rat KLB chimeric proteins; summary table of + and - by epitope bin
[5] = target: B5; test: biolayer interferometry (Octet), anti-human Fc sensor -> human Ab1 -> no hKLB -> mouse Ab2
Experimental: Epitope binning experiments (FIGS. 11A-11B) were performed by BioLayer Inferometry in 8-channel or 16-channel mode using anti-mouse Fc or anti-human Fc capture biosensors on the Octet Red384 system (Pall Life Sciences, Menlo Park, Calif.). […] Epitope binning with anti-human Fc capture biosensors was done similarly.

[6] = target: T3, recombinant human KLB (soluble protein) (human, UniProt Q86Z14 53-997, limits assumed); test: SPR, Biacore T200, antibody captured on Protein A chip, monomeric human KLB as analyte, 25 C; mean ± range of two experiments
T3 construct: also called monomeric human KLB; recombinant KLB
Experimental: (§1) For binding affinity determination of tcIgG and traditional IgG, surface plasmon resonance (SPR) measurements using a BIAcore T200 and ProteinA sensor chip was used and dilutions of monomeric human KLB as analyte were injected over the immobilized tcIgG or traditional IgG at 25° C. to determine monovalent affinities. Association rates (kon) and dissociation rates (koff) were calculated using a simple one-to-one Langmuir binding model. The equilibrium dissociation constant (Kd) was calculated as the ratio koff/kon.

[7] = target: T3, recombinant human KLB (soluble protein); test: SPR (BIAcore T200), antibody captured on Protein A chip, monomeric human KLB as analyte, 25 C, 1:1 Langmuir fit
Experimental: as §1

Rat KLB [8] = target: T2, Rat KLB; test: FACS, HEK293T cells expressing human/rat KLB chimeric proteins; summary table of + and - by epitope bin

B1: bispecific anti-KLB antibody 12B8/2C12 (IgG format) (bispecific antibody, V domains shown)
VH 1: QIQLVQSGPELKKPGETAKISCKASGYAFSNYGMNWVKQAPGKDLKWMGWIDTDTGEATYTDDFKGRFVFSLETSASTAYLQINNLKNEDMATYFCAREEYGLFGFPYWGHGTLVTVSA
VL 1: DIQMTQSSSSFSVSLGDRVTITCKASEDIYNRLAWYQQKPGSAPRLLISAATSLETGVPSRFSGSGSGKDYTLSITSLQTEDVATYYCQQYWSNPLTFGAGTKLELK
VH 2: EVQLQQSGPGLVKPSQSLSLTCSVTGYSITSGYYWTWIRQFPGNKLEWMGYIKYDGGNYYNPSLRNRISITRDTSKNHFFLKFYSVTAEDTATYFCARGDYYASPYGAMDSWGQGTSVTVSS
VL 2: DIVMTQSPSSLSASLGDTITITCHASQDIDVWLSWYQQKPGNVPQLLISKSSILHTGVPSRFSGGGSGTGFTLTISSLQPEDIATYYCQQGLSYPFTFGSGTKLKIK
Question: For B1, which “EC50 (nM), luciferase-based reporter assay” value (from here on “EC50 (nM)”) [1] is on record?
Answer: The value was 1.36 nM.

B2: bispecific anti-KLB antibody 2C12/28B7 (IgG format) (bispecific antibody, V domains shown)
VH 1: EVQLQQSGPGLVKPSQSLSLTCSVTGYSITSGYYWTWIRQFPGNKLEWMGYIKYDGGNYYNPSLRNRISITRDTSKNHFFLKFYSVTAEDTATYFCARGDYYASPYGAMDSWGQGTSVTVSS
VL 1: DIVMTQSPSSLSASLGDTITITCHASQDIDVWLSWYQQKPGNVPQLLISKSSILHTGVPSRFSGGGSGTGFTLTISSLQPEDIATYYCQQGLSYPFTFGSGTKLKIK
VH 2: EVQLQQSGPELVQPGTSVKISCEASGYTFTDYYINWVKQSRGKSLEWIGDINPNNGDTTYNQKFKAKATLTVDRSSNTAYMELRSLTSEDSVVYYCARRFYSSPFDSWGQGTTLTVSS
VL 2: DIVMTQSPSSLAVSVGEKVTLSCKSGQSLLYSRNQKNYLAWYQQKPGQSPKLLISWASTRESGVPDRFTGSGSGTDFTLTISSVKTEDLAVYHCQQYYSYPYTFGGGTRLEIK
Question: For B2, which “EC50 (nM)” value [1] is on record?
Answer: Its value is 0.58 nM.

B3: anti-KLB monoclonal antibody 12B8 (antibody, V domains shown)
VH: QIQLVQSGPELKKPGETAKISCKASGYAFSNYGMNWVKQAPGKDLKWMGWIDTDTGEATYTDDFKGRFVFSLETSASTAYLQINNLKNEDMATYFCAREEYGLFGFPYWGHGTLVTVSA
VL: DIQMTQSSSSFSVSLGDRVTITCKASEDIYNRLAWYQQKPGSAPRLLISAATSLETGVPSRFSGSGSGKDYTLSITSLQTEDVATYYCQQYWSNPLTFGAGTKLELK
notes: Mouse hybridoma antibody; tested as hybridoma supernatant, or recombinantly as mouse IgG2a or human IgG1, depending on the assay; also called clone 12B8; parental antibody 12B8
Question: Does B3 bind [2]?
Answer: Result: binds

Question: Does B3 bind (Rat KLB [3])?
Answer: Result: no binding (tested: 2 µg/ml (not on the sheet))

B4: bispecific anti-KLB antibody 12B8/23B3 (IgG format) (bispecific antibody, V domains shown)
VH 1: QIQLVQSGPELKKPGETAKISCKASGYAFSNYGMNWVKQAPGKDLKWMGWIDTDTGEATYTDDFKGRFVFSLETSASTAYLQINNLKNEDMATYFCAREEYGLFGFPYWGHGTLVTVSA
VL 1: DIQMTQSSSSFSVSLGDRVTITCKASEDIYNRLAWYQQKPGSAPRLLISAATSLETGVPSRFSGSGSGKDYTLSITSLQTEDVATYYCQQYWSNPLTFGAGTKLELK
VH 2: EVQLQESGPGLVKPSQSLSLTCSVTGYSITSGYYWNWIRQFPGNKLEWMGYIRYDGNSNYNPFLKNRVSITRDTSKNQFFLKLNSVTTEDTATYYCTRKGAYYSSFDALDYWGQGTSVTVSS
VL 2: DIVMTQSPSSMYASLGERVTISCKASQDIRSYLSWFQQKPGKSPKTLIYRANRLVDGVPSRFSGSGSGQDYSLTITSLEFGDVGLYYCLQYDEFPLTFGAGTKLKIE
Question: Which “EC50 (nM)” value [1] does the source give for B4 here?
Answer: The value was 0.95 nM.

Question: Does B5 bind (Rat KLB [3])?
Answer: Result: no binding (tested: 2 µg/ml (not on the sheet))

Question: Does B5 bind [4]?
Answer: Result: binds

B6: bispecific anti-KLB antibody 23B3/28B7 (IgG format) (bispecific antibody, V domains shown)
VH 1: EVQLQESGPGLVKPSQSLSLTCSVTGYSITSGYYWNWIRQFPGNKLEWMGYIRYDGNSNYNPFLKNRVSITRDTSKNQFFLKLNSVTTEDTATYYCTRKGAYYSSFDALDYWGQGTSVTVSS
VL 1: DIVMTQSPSSMYASLGERVTISCKASQDIRSYLSWFQQKPGKSPKTLIYRANRLVDGVPSRFSGSGSGQDYSLTITSLEFGDVGLYYCLQYDEFPLTFGAGTKLKIE
VH 2: EVQLQQSGPELVQPGTSVKISCEASGYTFTDYYINWVKQSRGKSLEWIGDINPNNGDTTYNQKFKAKATLTVDRSSNTAYMELRSLTSEDSVVYYCARRFYSSPFDSWGQGTTLTVSS
VL 2: DIVMTQSPSSLAVSVGEKVTLSCKSGQSLLYSRNQKNYLAWYQQKPGQSPKLLISWASTRESGVPDRFTGSGSGTDFTLTISSVKTEDLAVYHCQQYYSYPYTFGGGTRLEIK
Question: B6 was tested. Which “EC50 (nM)” value [1] did it give?
Answer: The value was 0.63 nM.

B7: anti-KLB monoclonal antibody 23B3 (antibody, V domains shown)
VH: EVQLQESGPGLVKPSQSLSLTCSVTGYSITSGYYWNWIRQFPGNKLEWMGYIRYDGNSNYNPFLKNRVSITRDTSKNQFFLKLNSVTTEDTATYYCTRKGAYYSSFDALDYWGQGTSVTVSS
VL: DIVMTQSPSSMYASLGERVTISCKASQDIRSYLSWFQQKPGKSPKTLIYRANRLVDGVPSRFSGSGSGQDYSLTITSLEFGDVGLYYCLQYDEFPLTFGAGTKLKIE
notes: also called clone 23B3
Question: Does B7 bind (Rat KLB [3])?
Answer: Result: no binding (tested: 2 µg/ml (not on the sheet))

Question: Does B7 bind [4]?
Answer: Result: binds

Question: Does B7 bind [5]?
Answer: Result: no binding

B8: bispecific anti-KLB antibody 4H7/28B7 (IgG format) (bispecific antibody, V domains shown)
VH 1: QVQLQQSGPELVKPGASVKLSCKASGYTFTNYDINWVRQRPGQGLEWIGWIYPRDGSAKYNAKFKGKATLTVDTSSSTAYMELHSLTSEDSAVYFCARRPLYYGSTHWYFDVWGTGTTVTVSS
VL 1: DIVLTQSPASLAVSLGQRATISCKASQSVDYDGDSYMNWYQQKPGQPPKLLIYAASNLKSGIPARFSGSGSGTDFTLNIHPVEEEDAATYYCQQSNEDPRTFGGGTRLEIK
VH 2: EVQLQQSGPELVQPGTSVKISCEASGYTFTDYYINWVKQSRGKSLEWIGDINPNNGDTTYNQKFKAKATLTVDRSSNTAYMELRSLTSEDSVVYYCARRFYSSPFDSWGQGTTLTVSS
VL 2: DIVMTQSPSSLAVSVGEKVTLSCKSGQSLLYSRNQKNYLAWYQQKPGQSPKLLISWASTRESGVPDRFTGSGSGTDFTLTISSVKTEDLAVYHCQQYYSYPYTFGGGTRLEIK
Question: For B8, which “EC50 (nM)” value [1] is on record?
Answer: The value was 1.21 nM.

B9: anti-KLB antibody clone 4H7 in tri-chain IgG format (antibody)
chain 1: DIVLTQSPASLAVSLGQRATISCKASQSVDYDGDSYMNWYQQKPGQPPKLLIYAASNLKSGIPARFSGSGSGTDFTLNIHPVEEEDAATYYCQQSNEDPRTFGGGTRLEIKRGGGGSGGGGSGGGGSGGGGSQVQLQQSGPELVKPGASVKLSCKASGYTFTNYDINWVRQRPGQGLEWIGWIYPRDGSAKYNAKFKGKATLTVDTSSSTAYMELHSLTSEDSAVYFCARRPLYYGSTHWYFDVWGTGTTVTVSS
chain 2: not shown
notes: VL-linker-VH-CH1-CH2-CH3 (VLfH) plus a separate CL domain disulfide-bonded to CH1; also called 4H7 tcIgG; 4H7 tcIgG1; not shown: human IgG1 heavy chain constant region (CH1-hinge-CH2-CH3); monospecific tcIgG were made by c
Question: For B9, which Kd [6] is on record?
Answer: The Kd was 1.29 nM.

Question: And the koff [6]?
Answer: Its koff is 0.000427 s⁻¹.

Question: What about the kon [6] of the same binder?
Answer: The kon was 332000 M⁻¹ s⁻¹.

Question: What about the kon [7] of the same binder?
Answer: The kon was 332000 M⁻¹ s⁻¹.

B10: anti-KLB monoclonal antibody 4H7 (antibody, IgG1, V domains shown)
VH: QVQLQQSGPELVKPGASVKLSCKASGYTFTNYDINWVRQRPGQGLEWIGWIYPRDGSAKYNAKFKGKATLTVDTSSSTAYMELHSLTSEDSAVYFCARRPLYYGSTHWYFDVWGTGTTVTVSS
VL: DIVLTQSPASLAVSLGQRATISCKASQSVDYDGDSYMNWYQQKPGQPPKLLIYAASNLKSGIPARFSGSGSGTDFTLNIHPVEEEDAATYYCQQSNEDPRTFGGGTRLEIK
notes: hybridoma mouse IgG in the first screen; also called clone 4H7; 4H7 IgG
Question: What does the source list for B10?
Answer: Kd [6]: 0.78 nM; koff [6]: 0.000444 s⁻¹; kon [6]: 571000 M⁻¹ s⁻¹; binding result (Rat KLB [8]): no binding (tested: not given); kon [7]: 571000 M⁻¹ s⁻¹

— patent publication US20190040142A1 (Genentech, published 2019)
